Laboratory results taken from the RNAGym collection of RNA variant scans (doi:10.1073/pnas.2313332121).
This sample holds only a part of the variants without activity.

B1: TPR 5TU (parent)
chain: GGAUCUUCUCGAUCUAACAAAAAAGACAAAUCUGCCACAAAGCUUGAGAGCAUCUUCGGAUGCAGAGGCGGCAGCCUUCGGUGGCGCGAUAGCGCCAACGUUCUCAACUAUGACACGCAAAACGCGUGCUCCGUUGAAUGGAGUUUAUCAUG

Variants of: B1
Experiment: polymerase ribozyme fitness, log enrichment relative to wild type (log ratio); higher = more active; in vitro selection for triplet polymerase activity
How it was run: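 Both subunits of a heterodimeric triplet polymerase ribozyme were given their own mutant library, built by PCR and transcribed. Each library was annealed with a biotinylated primer, the partner subunit and triplets, incubated frozen at −7 °C, and its extended constructs gel-excised, captured on streptavidin beads and amplified by RT-PCR, all in one round done in triplicate. Fitness is the logarithm of genotype enrichment relative to wild-type enrichment, with replicates averaged by inverse-variance weighting. That logarithm is base 2, and Illumina-sequenced genotypes needed ≥10 input reads and ≥1 read per output.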

Compared with C51G G83A U134C, G50C G86A C103G G124U C125U G126C is lower in “polymerase ribozyme fitness (log ratio)” value: -3.62 for the first, ≤ -4.2 for the second.

C51U U53G C93G U127C and G50C G83C G88U U146A cannot be ordered by “polymerase ribozyme fitness (log ratio)” value: ≤ -4.2 for the first, ≤ -4.2 for the second.

Compared with G50C A120U A121C, A49C U53G U56C A119C is lower in “polymerase ribozyme fitness (log ratio)” value: -2.61 for the first, ≤ -4.2 for the second.

First: A49C G81A G92U C93U G140U G152C
Second: A49U C51A U55G C95A
The “polymerase ribozyme fitness (log ratio)” value of the first is lower: ≤ -4.2 for the first, -2.79 for the second.

First: C51U C93G A120C G143C
Second: C51U C85G A106G
The “polymerase ribozyme fitness (log ratio)” value of the first is lower: -4.17 for the first, -2.8 for the second.

Compared with C51U C87U C103A C116A, G50A C54U U56A G70A C87G U90A C95G U109G C114G G141U is lower in “polymerase ribozyme fitness (log ratio)” value: -2.08 for the first, ≤ -4.2 for the second.

Compared with C51A A52G U56G C79A, G50A C85A is higher in “polymerase ribozyme fitness (log ratio)” value: ≤ -4.2 for the first, -3.59 for the second.

Compared with C51A C72A G80U U146C, G50U C54U C93A G136U is higher in “polymerase ribozyme fitness (log ratio)” value: ≤ -4.2 for the first, -4.07 for the second.

A49G G117A and A49G G117U are within 0.2 log units of each other in “polymerase ribozyme fitness (log ratio)” value: -0.467 for the first, -0.367 for the second.

G50C A73U G80A G81U C95A G100U U151C and G50C C93A C103G A113G A115U G140C cannot be ordered by “polymerase ribozyme fitness (log ratio)” value: ≤ -4.2 for the first, ≤ -4.2 for the second.

Compared with G50U C57A C72U G84A, A49G G59U A97U G143A is lower in “polymerase ribozyme fitness (log ratio)” value: -0.724 for the first, -3.58 for the second.

Compared with G50A C96G C129U, G50C A60G is higher in “polymerase ribozyme fitness (log ratio)” value: -3.02 for the first, -2.31 for the second.

Compared with A49U U55A A106G, C51A C72U G74C C93A G141A is lower in “polymerase ribozyme fitness (log ratio)” value: -0.994 for the first, ≤ -4.2 for the second.

First: G50C G71U A97U
Second: C51U U139G U144A
The “polymerase ribozyme fitness (log ratio)” value of the first is lower: ≤ -4.2 for the first, 0.259 for the second.

Going from C51U C69G G94C U146C to A49U G133U, the “polymerase ribozyme fitness (log ratio)” value falls from -1.9 to -3.93.

G50C C85A C93A and C51G C85G C125U A137C cannot be ordered by “polymerase ribozyme fitness (log ratio)” value: ≤ -4.2 for the first, ≤ -4.2 for the second.

Going from G50U C54G to A49G C63A G71U G83U A122U A150U, the “polymerase ribozyme fitness (log ratio)” value falls from -1.98 to ≤ -4.2.

Going from G50C C87U A113C C116A G143U U145C to A49G C54U U109G, the “polymerase ribozyme fitness (log ratio)” value rises from ≤ -4.2 to -2.26.

C51U G124A G133C G140A A150G and A49C G84U A107G U111G A120G cannot be ordered by “polymerase ribozyme fitness (log ratio)” value: ≤ -4.2 for the first, ≤ -4.2 for the second.

A49U C87A and A49C U55A G86A C99G A142U cannot be ordered by “polymerase ribozyme fitness (log ratio)” value: ≤ -4.2 for the first, ≤ -4.2 for the second.

Going from G50C C87A C114G A150C to G50C G59U C118U, the “polymerase ribozyme fitness (log ratio)” value rises from ≤ -4.2 to -2.35.

Compared with C51U C96G C132A, C51U G140U is higher in “polymerase ribozyme fitness (log ratio)” value: -3.26 for the first, -2.55 for the second.

A49C U56C and G50U C72A A89C G92A C129A A137G A150U cannot be ordered by “polymerase ribozyme fitness (log ratio)” value: ≤ -4.2 for the first, ≤ -4.2 for the second.

C51A U55G C95U C105A G117U and G50C C54U C87A U135C U144C cannot be ordered by “polymerase ribozyme fitness (log ratio)” value: ≤ -4.2 for the first, ≤ -4.2 for the second.

C51A A52C C116U C118A A142U and G50U A107C C132A cannot be ordered by “polymerase ribozyme fitness (log ratio)” value: ≤ -4.2 for the first, ≤ -4.2 for the second.

G50C U90A and G50A C51G G83U G84A G141U cannot be ordered by “polymerase ribozyme fitness (log ratio)” value: ≤ -4.2 for the first, ≤ -4.2 for the second.

C51A C99G G141C and C51G C87U C114G cannot be ordered by “polymerase ribozyme fitness (log ratio)” value: ≤ -4.2 for the first, ≤ -4.2 for the second.

Compared with A49G U53C A98U A121G, A49G C51A U53C C87G is lower in “polymerase ribozyme fitness (log ratio)” value: -1.87 for the first, ≤ -4.2 for the second.

Going from C51A A52C A64C C95U U101C A121C G133C U135G to C51G C95U, the “polymerase ribozyme fitness (log ratio)” value rises from ≤ -4.2 to -2.73.

Compared with G50C A98U U101A, C51U C103A A121C is higher in “polymerase ribozyme fitness (log ratio)” value: ≤ -4.2 for the first, -1 for the second.

A49C G59C A91U and A49C G62A C87A G140C cannot be ordered by “polymerase ribozyme fitness (log ratio)” value: ≤ -4.2 for the first, ≤ -4.2 for the second.

Compared with C51U C116G G140C, G50A U55A is higher in “polymerase ribozyme fitness (log ratio)” value: -4.07 for the first, -1.34 for the second.

First: A49C G58A G65A U139A
Second: G50C G58A
The “polymerase ribozyme fitness (log ratio)” value of the first is lower: ≤ -4.2 for the first, -1.56 for the second.

Compared with A49C U56A A64G C87U, C51A C63A U82A is higher in “polymerase ribozyme fitness (log ratio)” value: ≤ -4.2 for the first, -0.419 for the second.

First: A49C C75G C87A
Second: A49U C93A
The “polymerase ribozyme fitness (log ratio)” value of the first is lower: ≤ -4.2 for the first, -3.3 for the second.

Compared with A49G C51A G94A G124U, G50A G84U A147U is higher in “polymerase ribozyme fitness (log ratio)” value: -3.32 for the first, -1.53 for the second.

C51G G88A and G50A U55A A91U U135C cannot be ordered by “polymerase ribozyme fitness (log ratio)” value: ≤ -4.2 for the first, ≤ -4.2 for the second.

Going from G50U C93G to G50A G84A A142C, the “polymerase ribozyme fitness (log ratio)” value rises from -3.35 to -3.15.

First: G50A C54U G80A U82G G88A G92A C93G U145A
Second: G50U A150G
The “polymerase ribozyme fitness (log ratio)” value of the first is lower: ≤ -4.2 for the first, -2.11 for the second.

First: G50C A52C U77C C79A U101G A115U
Second: A49G C54A C116G A121U
The “polymerase ribozyme fitness (log ratio)” value of the first is lower: ≤ -4.2 for the first, -2.34 for the second.

Compared with A49U C51U A147C, A49U A60U G81U A106G C118A U134C is lower in “polymerase ribozyme fitness (log ratio)” value: -0.373 for the first, -3.51 for the second.

With A52C C54U U55G G67C G71U C85U G143C the “polymerase ribozyme fitness (log ratio)” value was ≤ -4.2.
